Measured values reported in patent US20060234944.

What was measured:
substrate EEISEVNLAAEF = molecular target: T1, substrate EEISEVNLAAEF
T1 chain: EEISEVNLAAEF

substrate EVNLAVEFWHDR = molecular target: T2, substrate EVNLAVEFWHDR
T2 chain: EVNLAVEFWHDR

substrate RWHHEVNLAAEF = molecular target: T3, substrate RWHHEVNLAAEF
T3 chain: RWHHEVNLAAEF

B1: memapsin 2 (spontaneously activated promemapsin 2-T1; amino acids 43-456 and 45-456 of SEQ ID NO: 8) (protein)
chain: LRLPRETDEEPEEPGRRGSFVEMVDNLRGKSGQGYYVEMTVGSPPQTLNILVDTGSSNFAVGAAPHPFLHRYYQRQLSSTYRDLRKGVYVPYTQGKWEGELGTDLVSIPHGPNVTVRANIAAITESDKFFINGSNWEGILGLAYAEIARPDDSLEPFFDSLVKQTHVPNLFSLQLCGAGFPLNQSEVLASVGGSMIIGGIDHSLYTGSLWYTPIRREWYYEVIIVRVEINGQDLKMDCKEYNYDKSIVDSGTTNLRLPKKVFEAAVKSIKAASSTEKFPDGFWLGEQLVCWQAGTTPWNIFPVISLYLMGEVTNQSFRITILPQQYLRPVEDVATSQDDCYKFAISQSSTGTVMGAVIMEGFYVVFDRARKRIGFAVSACHVHDEFRTAAVEGPFVTLDMEDCGYNIPQTDEST
Question: How did the “rate of catalysis in competitive cleavage assay (MALDI-TOF), relative to EVNLAAEFWHDR” value (substrate EEISEVNLAAEF) turn out when B1 was run?
Answer: statistically identical rates of catalysis for the upstream EEIS (SEQ ID NO: 52) and the downstream WHDR (SEQ ID NO: 29) sequence additions

Question: What about the Km (substrate EVNLAVEFWHDR) of the same protein?
Answer: Km of 83±8.9 mM

Question: And the “rate of catalysis in competitive cleavage assay (MALDI-TOF), relative to EVNLAAEFWHDR” value (substrate RWHHEVNLAAEF)?
Answer: a 60-fold decrease in the rate of catalysis for the upstream RWHH (SEQ ID NO: 53) sequence addition when compared to the downstream WHDR (SEQ ID NO: 29) sequence addition
